{"source": "patent US10017560", "binders": {"B1": {"name": "Nb-To2 (VHH)", "VHH": "QVQLQESGGGSVQAGGSLRLSCVASGDTLRLCRMGWYRQAPGKGRELVSSMEIDGTTNYADSVKGRFTISQGDNRNTMYLQMNSLKPEDTAMYYCKMEGGYGGNCRLAIYNYWGQGTQVTVSS"}}, "key": {"[1]": {"molecular_target": "Tomato Leaf Curl Sudan Virus (ToLCSDV) purified viral particles (Tomato Leaf Curl Sudan Virus)"}, "[2]": {"molecular_target": "Tomato Leaf Curl Sudan Virus (ToLCSDV) purified viral particles (Tomato Leaf Curl Sudan Virus)", "assay": "SPR single-cycle kinetics, ToLCSDV captured at 185 RU"}, "[3]": {"molecular_target": "Tomato Leaf Curl Sudan Virus (ToLCSDV) purified viral particles (Tomato Leaf Curl Sudan Virus)", "assay": "SPR single-cycle kinetics, ToLCSDV captured at 310 RU"}, "[4]": {"molecular_target": "Tomato Leaf Curl Sudan Virus (ToLCSDV) purified viral particles (Tomato Leaf Curl Sudan Virus)", "assay": "SPR single-cycle kinetics, ToLCSDV captured at 405 RU"}}}
{"binder": "B1", "values": [{"measurement": "A1 (% ToLCSDV Binding)", "setting": "[1]", "value": -0.842}, {"measurement": "A2 (% ToLCSDV Binding)", "setting": "[1]", "value": 101}, {"measurement": "EC20 (dilution of the NbTo2 sample)", "setting": "[1]", "value": 0.00459}, {"measurement": "EC80 (dilution of the NbTo2 sample)", "setting": "[1]", "value": 0.000613}, {"measurement": "LOGx0 (log(dilution NbTo2))", "setting": "[1]", "value": -2.78}, {"measurement": "p", "setting": "[1]", "value": -1.38}, {"measurement": "span (% ToLCSDV Binding)", "setting": "[1]", "value": 102}, {"measurement": "Kd", "setting": "[2]", "value": 0.292, "unit": "nM"}, {"measurement": "koff", "setting": "[2]", "value": 0.00135, "unit": "s⁻¹"}, {"measurement": "kon", "setting": "[2]", "value": "4.65e+06", "unit": "M⁻¹ s⁻¹"}, {"measurement": "Kd", "setting": "[3]", "value": 0.374, "unit": "nM"}, {"measurement": "koff", "setting": "[3]", "value": 0.00151, "unit": "s⁻¹"}, {"measurement": "kon", "setting": "[3]", "value": "4.05e+06", "unit": "M⁻¹ s⁻¹"}, {"measurement": "Kd", "setting": "[4]", "value": 0.432, "unit": "nM"}, {"measurement": "koff", "setting": "[4]", "value": 0.00161, "unit": "s⁻¹"}, {"measurement": "kon", "setting": "[4]", "value": "3.72e+06", "unit": "M⁻¹ s⁻¹"}]}
